Measurements as given in patent US20030032096A1 (US Dept. of Health and Human Services, published 2003).
“And” between values parts separate entries of the source, which are not always exact repeats. Identical values can stand only once. Like-named read-outs stand apart in the source and are kept apart here. Values belong to the molecule of their own block, whether it stands above or below them. No end group written: not given here. *: point of attachment. 125I = [125I]*

Key:
[1] = biological target: human parathyroid hormone type 2 receptor (PTH2 receptor) (human) (UniProt P49190); assay: cell-based or functional assay
human parathyroid hormone type 2 receptor (PTH2 receptor) (human), sequence (P49190 25-550): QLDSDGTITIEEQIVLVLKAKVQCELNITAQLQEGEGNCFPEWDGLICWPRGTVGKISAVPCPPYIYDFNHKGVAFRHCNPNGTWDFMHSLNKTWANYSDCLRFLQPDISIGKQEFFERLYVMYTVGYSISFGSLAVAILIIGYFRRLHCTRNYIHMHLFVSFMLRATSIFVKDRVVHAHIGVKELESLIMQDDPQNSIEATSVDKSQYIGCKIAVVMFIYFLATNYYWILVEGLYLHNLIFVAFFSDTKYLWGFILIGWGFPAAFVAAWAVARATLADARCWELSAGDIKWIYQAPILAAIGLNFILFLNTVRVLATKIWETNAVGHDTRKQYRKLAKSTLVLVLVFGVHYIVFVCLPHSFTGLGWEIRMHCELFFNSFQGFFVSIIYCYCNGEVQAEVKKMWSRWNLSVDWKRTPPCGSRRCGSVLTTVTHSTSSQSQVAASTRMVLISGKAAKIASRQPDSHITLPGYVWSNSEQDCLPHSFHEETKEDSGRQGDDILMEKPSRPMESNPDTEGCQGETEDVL

rat PTH2 receptor = rat PTH2 receptor (rat, UniProt P70555 25-546); assay: cell-based or functional assay
rat PTH2 receptor, sequence (P70555 25-546): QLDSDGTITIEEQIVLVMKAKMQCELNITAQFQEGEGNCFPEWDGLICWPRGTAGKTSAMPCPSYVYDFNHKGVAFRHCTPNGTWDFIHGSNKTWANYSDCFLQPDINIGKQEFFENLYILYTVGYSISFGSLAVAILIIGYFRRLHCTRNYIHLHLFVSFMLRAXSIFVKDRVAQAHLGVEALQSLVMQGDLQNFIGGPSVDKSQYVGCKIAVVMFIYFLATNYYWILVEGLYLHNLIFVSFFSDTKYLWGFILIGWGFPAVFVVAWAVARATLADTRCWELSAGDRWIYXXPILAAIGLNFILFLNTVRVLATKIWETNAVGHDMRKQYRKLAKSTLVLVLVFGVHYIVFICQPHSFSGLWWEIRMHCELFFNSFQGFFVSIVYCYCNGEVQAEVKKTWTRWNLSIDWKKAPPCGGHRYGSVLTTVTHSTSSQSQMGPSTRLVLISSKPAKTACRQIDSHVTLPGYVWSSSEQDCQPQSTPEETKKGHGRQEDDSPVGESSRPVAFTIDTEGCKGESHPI

[2] = biological target: human parathyroid hormone type 1 receptor (PTH1 receptor) (human) (UniProt Q03431); assay: radioligand binding to the PTH1 receptor
[3] = biological target: human parathyroid hormone type 1 receptor (PTH1 receptor) (human) (UniProt Q03431); assay: direct dissociation of the radioligand from the PTH1 receptor
[4] = biological target: human parathyroid hormone type 2 receptor (PTH2 receptor) (human) (UniProt P49190); assay: membrane radioligand binding, absence of GTPγS
[5] = biological target: human parathyroid hormone type 2 receptor (PTH2 receptor) (human) (UniProt P49190); assay: membrane radioligand binding, presence of GTPγS
[6] = biological target: human parathyroid hormone type 1 receptor (PTH1 receptor) (human) (UniProt Q03431); assay: radioligand binding, HEK293 membranes, 10 µM GTPγS, 43 000 cpm added
[7] = biological target: C-terminal hemaglutinin-tagged human PTH1 receptor (Example 11) (human) (UniProt Q03431); assay: cell-based or functional assay
[8] = biological target: human parathyroid hormone type 1 receptor (PTH1 receptor) (human) (UniProt Q03431); assay: Motulsky and Mahan kinetic competition with [125I]TIP(7-39), HEK293 membranes
[9] = biological target: human parathyroid hormone type 2 receptor (PTH2 receptor) (human) (UniProt P49190); assay: displacement of [125I]TIP39, HEK293 membranes, centrifugation assay
[10] = biological target: human parathyroid hormone type 2 receptor (PTH2 receptor) (human) (UniProt P49190); assay: displacement of [125I]TIP39, HEK293 membranes, with against without GTPγS
[11] = biological target: human parathyroid hormone type 1 receptor (PTH1 receptor) (human) (UniProt Q03431); assay: displacement of [125I][Nle8,21,Tyr34]rPTH(1-34), HEK293 membranes, 10 µM GTPγS
[12] = biological target: human parathyroid hormone type 2 receptor (PTH2 receptor) (human) (UniProt P49190); assay: cell-based or functional assay; remark: listed apart in the source
[13] = biological target: human parathyroid hormone type 1 receptor (PTH1 receptor) (human) (UniProt Q03431); assay: cell-based or functional assay
[14] = biological target: T1, human parathyroid hormone type 1 receptor (PTH1 receptor) (human, UniProt Q03431 27-593); assay: saturation binding, HEK293 membranes, filtration
T1 construct: whole, on cells; also called human PTH1 receptor
T1 sequence (looked up): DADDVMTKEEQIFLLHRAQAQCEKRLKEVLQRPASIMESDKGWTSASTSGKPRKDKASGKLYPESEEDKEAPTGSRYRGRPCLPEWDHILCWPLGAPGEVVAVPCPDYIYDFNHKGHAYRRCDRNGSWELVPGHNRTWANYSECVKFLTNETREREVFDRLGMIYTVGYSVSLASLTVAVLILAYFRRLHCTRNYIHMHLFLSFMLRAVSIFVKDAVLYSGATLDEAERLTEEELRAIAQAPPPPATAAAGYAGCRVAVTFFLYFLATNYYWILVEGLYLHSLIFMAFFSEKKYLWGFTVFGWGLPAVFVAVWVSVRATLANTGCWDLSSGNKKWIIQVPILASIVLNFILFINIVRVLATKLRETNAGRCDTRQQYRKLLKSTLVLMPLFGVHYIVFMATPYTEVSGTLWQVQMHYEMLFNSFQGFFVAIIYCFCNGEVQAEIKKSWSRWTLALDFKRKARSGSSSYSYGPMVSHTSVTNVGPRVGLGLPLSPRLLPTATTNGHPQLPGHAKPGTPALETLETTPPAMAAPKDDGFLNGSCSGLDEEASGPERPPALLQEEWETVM

[15] = biological target: T1, human parathyroid hormone type 1 …; assay: kinetically derived from association and dissociation of the radioligand, HEK293 membranes
[16] = biological target: T1, human parathyroid hormone type 1 …; assay: radioligand binding, HEK293 membranes, filtration
[17] = biological target: T1, human parathyroid hormone type 1 …; assay: dissociation time course of the radioligand, HEK293 membranes
[18] = biological target: T1, human parathyroid hormone type 1 …; assay: y intercept of kon(obs) against radioligand concentration, HEK293 membranes
[19] = biological target: T1, human parathyroid hormone type 1 …; assay: radioligand dissociation kinetics, HEK293 membranes, filtration; value held constant in the fit of FIG. G
[20] = biological target: T1, human parathyroid hormone type 1 …; assay: radioligand association kinetics, HEK293 membranes, filtration; value held constant in the fit of FIG. G
[21] = biological target: T2, human parathyroid hormone type 2 receptor (PTH2 receptor) (human, UniProt P49190 25-550); assay: displacement of [125I]TIP39, 293PTH2 membranes, filtration assay
T2 construct: whole, on cells; also called human PTH2 receptor; hPTH2 receptor
T2 sequence (P49190 25-550): as the sequence (P49190 25-550) above

human glucagon receptor = biological target: T3, human glucagon receptor (human, UniProt P47871 26-477); assay: displacement of [125I]glucagon, intact COS-7 cells
T3 construct: whole, on cells
T3 sequence (P47871 26-477): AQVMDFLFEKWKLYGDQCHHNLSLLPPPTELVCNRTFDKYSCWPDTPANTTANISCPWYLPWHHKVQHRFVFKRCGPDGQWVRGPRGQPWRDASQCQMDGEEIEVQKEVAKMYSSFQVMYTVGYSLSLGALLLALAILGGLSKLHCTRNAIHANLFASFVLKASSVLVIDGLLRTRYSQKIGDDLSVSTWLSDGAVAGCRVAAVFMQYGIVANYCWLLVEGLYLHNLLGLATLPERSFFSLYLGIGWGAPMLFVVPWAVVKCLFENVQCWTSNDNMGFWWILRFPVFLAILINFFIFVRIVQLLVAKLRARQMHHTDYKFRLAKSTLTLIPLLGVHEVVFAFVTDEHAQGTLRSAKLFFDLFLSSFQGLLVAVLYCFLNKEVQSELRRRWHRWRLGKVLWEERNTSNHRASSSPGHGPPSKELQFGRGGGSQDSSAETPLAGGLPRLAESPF

[22] = biological target: T1, human parathyroid hormone type 1 …; assay: displacement of [125I][Nle8,21,Tyr34]rPTH(1-34), 293PTH1 membranes, centrifugation assay, 10 µM GTPγS
[23] = biological target: T1, human parathyroid hormone type 1 …; assay: radioligand displacement, 293PTH1 membranes, centrifugation assay, 10 µM GTPγS
[24] = biological target: T2, human parathyroid hormone type 2 …; assay: displacement of [125I]TIP39, 293PTH2 membranes, centrifugation assay, 10 µM GTPγS
[25] = biological target: T1, human parathyroid hormone type 1 …; assay: displacement of [125I][Nle8,21,Tyr34]rPTH(1-34), 293PTH1 membranes, filtration assay
[26] = biological target: T1, human parathyroid hormone type 1 …; assay: cell-based or functional assay

Molecule: [^125I][Nle^8,18, Tyr^34]bPTH(3-34) (from UniProt P01268 34-65) (peptide)
signal-to-noise ratio [2]: 6
koff [3]: 0.00102 s⁻¹

Molecule: [Nle^8,18, Tyr^34]bPTH(3-34) amide (from UniProt P01268 34-65) (peptide)
Emax, % of the maximal response to rPTH(1-34) (cAMP, COS-7 cells) [7]: 26%
-logEC50 (cAMP accumulation) [1]: 8.28
EC50 (cAMP accumulation) [1]: 5.2 nM
Emax, % of response to 1 µM hPTH(1-34) [1]: 37%
koff [8]: 0.0005 s⁻¹

Molecule: PTHrP(1-34) (from UniProt P12272 37-70) (peptide)
Emax, % of response to 1 µM hPTH(1-34) [1]: 25%
Emax, % of response of hPTH2r to 1 µM hPTH(1-34) (rat PTH2 receptor): 7%
Emax, % of response of rPTH2r to 3 µM rPTH(1-34) (rat PTH2 receptor): 14%

Molecule: [D-Tryp^12, Tyr^34]bPTH(7-34) amide (from UniProt P01268 38-65) (peptide)
fold difference of IC50 against TIP(7-39) [11]: 7.3 fold

Molecule: hPTH(1-84) (from UniProt P01270 32-115) (peptide)
Emax, % of response to 1 µM hPTH(1-34) [1]: 79%

Molecule: [Nle^8,18, D-Tryp^12, Tyr^34]bPTH(7-34) amide (from UniProt P01268 38-65) (peptide)
pA2 (shift of rPTH(1-34) cAMP EC50 by 1 µM antagonist) [1]: 6.5
pA2 as concentration [1]: 320 nM
pA2 (shift of rPTH(1-34) cAMP EC50 by 1 µM antagonist) (rat PTH2 receptor): 6.5
pA2 as concentration (rat PTH2 receptor): 310 nM

B1: [^125I]TIP(7-39) (peptide)
peptide: DAAFRERARLLAALERRHWLNSY(125I)MHKLLVLDAP
notes: 2000 Ci/mmol; also called radiolabeled TIP(7-39)
Kd [14]: 1.3 nM
Kd [15]: 0.57 nM
total binding: non-specific binding ratio [16]: ~5
koff [17]: 0.000833 s⁻¹
koff [18]: 0.00128 s⁻¹
koff [19]: 0.00085 s⁻¹
kon [20]: 1.48e+06 M⁻¹ s⁻¹

Molecule: ADDAAFRERARLLAALERRHWLNSYMHKLLVLDAP [TIP(5-39)]
binding result [21]: binds

Molecule: ALADDAAFRERARLLAALERRHWLNSYMHKLLVLDAP [TIP(3-39)]
binding result [21]: binds

B2: tuberinfundibular peptide of 39 residues (TIP39), bovine sequence, synthetic (peptide)
peptide: SLALADDAAFRERARLLAALERRHWLNSYMHKLLVLDAP
notes: Chemically synthesized 39 residue peptide (Anaspec or Biomolecules Midwest); also called bTIP39; synthetic hypothalamic peptide
binding result (human glucagon receptor): no binding (tested: 1 µM)
maximal effect against PTH (rat PTH2 receptor): ~3 fold

B3: TIP(2-39) (peptide)
peptide: LALADDAAFRERARLLAALERRHWLNSYMHKLLVLDAP
notes: N-terminally truncated TIP39 analogue from Biomolecules Midwest
binding result [21]: binds

B4: rPTH(1-84) (peptide, UniProt P04089 32-115, looked up)
peptide: AVSEIQLMHNLGKHLASVERMQWLRKKLQDVHNFVSLGVQMAAREGSYQRPTKKEENVLVDGNSKSLGEGDKADVDVLVKAKSQ
-logEC50 (cAMP accumulation) [12]: 9.24
EC50 (cAMP accumulation) [12]: 0.58 nM
Emax, % of response to 1 µM hPTH(1-34) [12]: 98%
-logEC50 (cAMP accumulation) (rat PTH2 receptor): 7.72
EC50 (cAMP accumulation) (rat PTH2 receptor): 19 nM
Emax, % of response of hPTH2r to 1 µM hPTH(1-34) (rat PTH2 receptor): 28%
Emax, % of response of rPTH2r to 3 µM rPTH(1-34) (rat PTH2 receptor): 97%

Molecule: DAAFRERARLLAALERRHWLNSYMHKLLVLDAP (also called bTIP(7-39)) [TIP(7-39)]
-logIC50 [22]: 8.3
IC50 [22]: 5 nM
fold higher affinity than TIP39 [23]: 12 fold
fold lower affinity than full-length TIP39 [21]: 70 fold
-logIC50 [24]: 7.01
IC50 [24]: 98 nM
fold lower binding potency than full-length TIP39 [24]: 32 fold
fold higher affinity than TIP39 [25]: 5.6 fold
fold-shift of rPTH(1-34) EC50 by 1 µM TIP(7-39), 20% human plasma [26]: 11 fold
fold-shift of rPTH(1-34) EC50 by 1 µM TIP(7-39), absence of plasma [26]: 7 fold

The remaining lines, values ahead:

-logEC50 (cAMP accumulation) [1]: 8.41
EC50 (cAMP accumulation) [1]: 3.9 nM
Emax, % of response to 1 µM hPTH(1-34) [1]: 76%
-logEC50 (cAMP accumulation) (rat PTH2 receptor): 6.85
EC50 (cAMP accumulation) (rat PTH2 receptor): 141 nM
Emax, % of response of hPTH2r to 1 µM hPTH(1-34) (rat PTH2 receptor): 5%
Emax, % of response of rPTH2r to 3 µM rPTH(1-34) (rat PTH2 receptor): 19%
Molecule: [Nle^8,18, Tyr^34]bPTH(1-34) (from UniProt P01268 32-65) (peptide)

signal-to-noise ratio [4]: 3.5 fold
signal-to-noise ratio [5]: 2 fold
total binding (cpm) [6]: 4400 cpm and 4800 cpm
Molecule: [^125I][Nle^8,21, Tyr^34]rPTH(1-34) (from UniProt P04089 32-65) (peptide)

maximal ligand-stimulated cAMP production [1]: 4 pmol.well^-1
maximal ligand-stimulated cAMP production (25 µl assay volume) [1]: 6 pmol.well^-1
Emax, % of response of hPTH2r to 1 µM hPTH(1-34) (rat PTH2 receptor): 22%
Emax, % of response of rPTH2r to 3 µM rPTH(1-34) (rat PTH2 receptor): 43%
Molecule: hPTH(1-34) (from UniProt P01270 32-65) (peptide)

IC50 [9]: 1.1 nM
fold increase of IC50 with GTPγS [10]: 1.5 fold
Molecule: [Nle^8,21, Tyr^34]rPTH(1-34) amide (from UniProt P04089 32-65) (peptide)

-logEC50 (cAMP accumulation) [12]: 9.39
EC50 (cAMP accumulation) [12]: 0.41 nM
EC50 (cAMP production, HEK293 cells) [12]: 58000 nM
EC50 (cAMP) [12]: 0.15 nM
Emax [12]: 85%
Emax, % of response to 1 µM hPTH(1-34) [12]: 94%
EC50 (cAMP production, HEK293 cells) [13]: 0.5 nM
-logEC50 (cAMP accumulation) (rat PTH2 receptor): 7.09
EC50 (cAMP accumulation) (rat PTH2 receptor): 81 nM
EC50 (cAMP) (rat PTH2 receptor): 49 nM
Emax, % of response of hPTH2r to 1 µM hPTH(1-34) (rat PTH2 receptor): 46%
Emax, % of response of rPTH2r to 3 µM rPTH(1-34) (rat PTH2 receptor): 100%
maximal ligand-stimulated cAMP production (50 µl-volume assays) (rat PTH2 receptor): 2.1 pmol.well^-1
Molecule: AVSEIQLMHNLGKHLASVERMQWLRKKLQDVHNF (peptide, UniProt P04089 32-65, looked up, also: binding, rPTH(1-34) denotes the [Nle8,21, Tyr34] analogue) [rPTH(1-34)]

-logEC50 (cAMP accumulation) [12]: 8.05
EC50 (cAMP accumulation) [12]: 8.9 nM
Emax, % of response to 1 µM hPTH(1-34) [12]: 38%
Molecule: SEIQFMHNLGKHLSSMERVEWLRKKLQDVHNF (peptide, UniProt P01268 34-65, looked up) [bPTH(3-34)]
